In one assay the target is HLA DRB5 01:01. The assay can be described thus: competitive HLA binding assay (legend: - No binding).
Assay [1] deals with T-cells in PBMCs from MS patients and healthy controls. The assay can be described thus: FluoroSpot with full-length recombinant antigens (52 patients, 24 controls), with ROC analysis. It counts as cell-based, human. The method, then: FIGS. 8A-8D. IFNγ/IL-22/IL-17 Fluorospot assay comparing T-cell activation in multiple sclerosis (MS)-patients and healthy controls when stimulated with full-length recombinant antigens (FABP7, PROK2, RTN3, SNAP91). Fifty-two Multiple Sclerosis patients and 24 healthy controls were tested for T-cell activation towards recombinant full-length versions of the autoantigens in a FluoroSpot assay. FIG. 8A: FABP7 isoform 2 (SEQ ID NO:1). FIG. 8B: PROK2 (SEQ ID NO:2). FIG. 8C: RTN3 SEQ ID NO:3. FIG. 8D: SNAP91 SEQ ID NO: 4. P-values calculated using Mann-Whitney test. Staples denote mean and C195%.
FIGS. 9A-9E. ROC-curves for the full-length antigens, Sensitivity and specificity when used as a diagnostic marker. Individually, the four antigens perform similarly as diagnostic markers for disease, all reaching a sensitivity of ˜50% with a specificity of 95%. FIG. 9A: FABP7 isoform 2. FIG. 9B: PROK2. FIG. 9C: RTN3. FIG. 9D: SNAP91. FIG. 9E: Using a combination of all four antigens as a diagnostic test achieves higher sensitivity and specificity. Specifically, utilizing the ratio of IL-17 divided by the square root of IFNγ response towards the mean response to the four antigens achieves a sensitivity of 70% with a specificity of >95%.
The full-length proteins can also be used in a similar way, see FIG. 9A-D. Utilizing all four full-length antigens, using each individual's average response to the four, increases the sensitivity and specificity further (FIG. 9E). Combining different readouts, such as analyzing the ratio between IL-17 and IFNγ, can increase the sensitivity of the test further (FIG. 9E, Table 2).
Recombinant full-length versions of the antigens FABP7 (SEQ ID NO: 1), PROK2 (SEQ ID NO: 2), RTN3 (SEQ ID NO: 3), SNAP91 (SEQ ID NO: 4) were produced in E. coli in house according to standard recombinant protein production protocols and purified via his-tag purification. 52 patients and 24 controls were tested for reactivity towards the antigens in an IFNγ/IL17/IL22 FluoroSpot assay as previously described.
A second, larger, cohort was collected in order to test the full length antigens. In this cohort, 52 patients and 24 healthy controls were included. The inclusion/exclusion criteria (table 5) as well as the sampling and PBMCs isolation were the same.
The antigens (FABP7, PROK2, RTN3 and SNAP91) picked out from the screening of PrESTs described in Example 1 and 2 were selected for further testing on the full-length versions of the protein. The full-length antigens were produced by transforming plasmids encoding the antigen and a […] into Escherichia coli. After growth, the bacteria were lysed and the protein purified from the supernatant of the bacterial lysis via 6× histidine-tag purification on an immobilized metal affinity chromatography-column. The antigens were subsequently coupled to beads and endotoxin-washed as previously described.
The FluoroSpot assay was performed under sterile conditions in a cell culture hood. The cells were thawed in a water bath at 37° C. and washed with cRPMI (RPMI 1640 medium, Sigma Aldrich, containing 10% fetal calf serum, 1% 200 mM L-Glutamine, 1% 10,000 U/ml Penicillin-10 mg/ml Streptomycin). The cells were counted manually using a light-microscope (Nikon TMS-F, Nikon, Japan) and subsequently diluted in cRPMI to a concentration of 2.5×10^6 cells/ml. The FluoroSpot plate (Human IFNγ/IL-22/IL-17A FluoroSpot kit, pre-coated, Mabtech, Sweden) was washed with PBS and then blocked with cRPMI for 30 min at room temperature. The blocking cRPMI was then discarded and 100 μl fresh cRPMI was added to each well of the FluoroSpot plate. Antigen (3×10^6 beads) was added to each well in duplicates according to a specific layout. In accordance to the manufacturer's protocol, anti-CD3 was used as a positive control. Both uncoupled beads and media without stimuli was used as negative controls. PBMCs (250,000 cells) in 100 μl cRPMI were added to each well (125,000 cells for the anti-CD3). […]

As to MVSNDNSPFFLVFFS (also called Pool 5 FABP7) [FABP7 peptide #27 (Aa 116-130 of SEQ ID NO: 1)], the binding result in the assay with HLA DRB5 01:01 was “no binding”.

Turning to ERRKRKRSKRKKEVP (also called Pool 2 PROK2) [PROK2 peptide #12 (Aa 83-97 of SEQ ID NO: 2)], the binding result in the assay with HLA DRB5 01:01 is on record as “no binding”. As to LGEEFDETTADDRNC (also called Pool 3 FABP7) [FABP7 peptide #14 (Aa 67-81 of SEQ ID NO: 1)], in the assay with HLA DRB5 01:01, the binding result was “no binding”. Still for that read-out and setting: under ACDKDSQCGGGMCCA (also called Pool 1 PROK2) [PROK2 peptide #2 (Aa 33-47 of SEQ ID NO: 2)] stands “no binding”.

B1: PROK2: recombinant full-length PROK2 (SEQ ID NO: 2) produced in E. coli (protein, listed as Homo sapiens)
chain: MRSLCCAPLLLLLLLPPLLLTPRAGDAAVITGACDKDSQCGGGMCCAVSIWVKSIRICTPMGKLGDSCHPLTRKNNFGNGRQERRKRKRSKRKKEVPFFGRRMHHTCPCLPGLACLRTSFNRFICLAQK
B1: in assay [1], the “reactivity of MS patients PBMCs versus controls, IFNγ” value was “significantly higher reactivity”; the “reactivity of MS patients PBMCs versus controls, IL17 and IL22” value is reported as “significantly higher reactivity”. For KRSKRKKEVPFFGRR (also called Pool 2 PROK2) [PROK2 peptide #13 (Aa 88-102 of SEQ ID NO: 2)], in the assay with HLA DRB5 01:01, the binding result is “no binding”. In the case of EISFQLGEEFDETTA (also called Pool 3 FABP7) [FABP7 peptide #13 (Aa 62-76 of SEQ ID NO: 1)], the binding result with HLA DRB5 01:01 was “no binding”. With AVITGACDKDSQCGG (also called Pool 1 PROK2) [PROK2 peptide #1 (Aa 28-42 of SEQ ID NO: 2)], the binding result with HLA DRB5 01:01 is reported as “no binding”. As for TKPTVIISQEGDKVV (also called Pool 2 FABP7) [FABP7 peptide #8 (Aa 37-51 of SEQ ID NO: 1)], the binding result in the assay with HLA DRB5 01:01 is reported as “no binding”. On to CTPMGKLGDSCHPLT (also called Pool 1 PROK2) [PROK2 peptide #7 (Aa 58-72 of SEQ ID NO: 2)], for which the binding result with HLA DRB5 01:01 is recorded as “no binding”. The same measure, in the same setting: in the case of IRTLSTFKNTEISFQ (also called Pool 2 FABP7) [FABP7 peptide #11 (Aa 52-66 of SEQ ID NO: 1)] it was “no binding”; in that of IISQEGDKVVIRTLS (also called Pool 2 FABP7) [FABP7 peptide #9 (Aa 42-56 of SEQ ID NO: 1)], “no binding”. The same measure, in the same setting: in the case of KLGDSCHPLTRKNNF (also called Pool 2 PROK2) [PROK2 peptide #8 (Aa 63-77 of SEQ ID NO: 2)] it was “no binding”; in that of HLLPSSSLLLPFFLL (also called Pool 6 FABP7) [FABP7 peptide #31 (Aa 136-150 of SEQ ID NO: 1)], “no binding”. Take HTCPCLPGLACLRTS (also called Pool 3 PROK2) [PROK2 peptide #19 (Aa 105-119 of SEQ ID NO: 2)]: the binding result with HLA DRB5 01:01 is given as “no binding”.

As for SQCGGGMCCAVSIWV (also called Pool 1 PROK2) [PROK2 peptide #3 (Aa 38-52 of SEQ ID NO: 2)], the binding result in the assay with HLA DRB5 01:01 is listed as “no binding”. As for KALGVGFATRQVGNV (also called Pool 1 FABP7) [FABP7 peptide #5 (Aa 22-36 of SEQ ID NO: 1)], the binding result in the assay with HLA DRB5 01:01 was “no binding”.

B2: FABP7 isoform 2. Full length: recombinant full-length human FABP7 isoform 2 (SEQ ID NO: 1) produced in E. coli; in b59 "FABP7" refers to PrEST data (protein, listed as Homo sapiens)
chain: MVEAFCATWKLTNSQNFDEYMKALGVGFATRQVGNVTKPTVIISQEGDKVVIRTLSTFKNTEISFQLGEEFDETTADDRNCKSVVSLDGDKLVHIQKWDGKETNFVREIKDGKMVMVSNDNSPFFLVFFSSPHTSHLLPSSSLLLPFFLLPSFFNNTSLARFFNYM
Regarding B2, in assay [1], the “reactivity of MS patients PBMCs versus controls, IFNγ” value is listed as “significantly higher reactivity”; the “reactivity of MS patients PBMCs versus controls, IL17 and IL22” value was “significantly higher reactivity”. Take VREIKDGKMVMVSND (also called Pool 5 FABP7) [FABP7 peptide #25 (Aa 106-120 of SEQ ID NO: 1)]: the binding result with HLA DRB5 01:01 is “no binding”. For the molecule GRRMHHTCPCLPGLA (also called Pool 3 PROK2) [PROK2 peptide #18 (Aa 100-114 of SEQ ID NO: 2)], in the assay with HLA DRB5 01:01, the binding result was “no binding”. Take TFKNTEISFQLGEEF (also called Pool 2 FABP7) [FABP7 peptide #12 (Aa 57-71 of SEQ ID NO: 1)]: the binding result in the assay with HLA DRB5 01:01 is on record as “no binding”.

B3: RTN3: recombinant full-length RTN3 (SEQ ID NO: 3) produced in E. coli (protein, listed as Homo sapiens)
chain: MAEPSAATQSHSISSSSFGAEPSAPGGGGSPGACPALGTKSCSSSCADSFVSSSSSQPVSLFSTSQEGLSSLCSDEPSSEIMTSSFLSSSEIHNTGLTILHGEKSHVLGSQPILAKEGKDHLDLLDMKKMEKPQGTSNNVSDSSVSLAAGVHCDRPSIPASFPEHPAFLSKKIGQVEEQIDKETKNPNGVSSREAKTALDADDRFTLLTAQKPPTEYSKVEGIYTYSLSPSKVSGDDVIEKDSPESPFEVIIDKAAFDKEFKDSYKESTDDFGSWSVHTDKESSEDISETNDKLFPLRNKEAGRYPMSALLSRQFSHTNAALEEVSRCVNDMHNFTNEILTWDLVPQVKQQTDKSSDCITKTTGLDMSEYNSEIPVVNLKTSTHQKTPVCSIDGSTPITKSTGDWAEASLQQENAITGKPVPDSLNSTKEFSIKGVQGNMQKQDDTLAELPGSPPEKCDSLGSGVATVKVVLPDDHLKDEMDWQSSALGEITEADSSGESDDTVIEDITADTSFENNKIQAEKPVSIPSAVVKTGEREIKEIPSCEREEKTSKNFEELVSDSELHQDQPDILGRSPASEAACSKVPDTNVSLEDVSEVAPEKPITTENPKLPSTVSPNVFNETEFSLNVTTSAYLESLHGKNVKHIDDSSPEDLIAAFTETRDKGIVDSERNAFKAISEKMTDFKTTPPVEVLHENESGGSEIKDIGSKYSEQSKETNGSEPLGVFPTQGTPVASLDLEQEQLTIKALKELGERQVEKSTSAQRDAELPSEEVLKQTFTFAPESWPQRSYDILERNVKNGSDLGISQKPITIRETTRVDAVSSLSKTELVKKHVLARLLTDFSVHDLIFWRDVKKTGFVFGTTLIMLLSLAAFSVISVVSYLILALLSVTISFRIYKSVIQAVQKSEEGHPFKAYLDVDITLSSEAFHNYMNAAMVHINRALKLIIRLFLVEDLVDSLKLAVFMWLMTYVGAVFNGITLLILAELLIFSVPIVYEKYKTQIDHYVGIARDQTKSIVEKIQAKLPGIAKKKAE
On to B3, for which, in assay [1], the “reactivity of MS patients PBMCs versus controls, IFNγ” value is reported as “significantly higher reactivity”; the “reactivity of MS patients PBMCs versus controls, IL17 and IL22” value is listed as “significantly higher reactivity”. In the case of GNGRQERRKRKRSKR (also called Pool 2 PROK2) [PROK2 peptide #11 (Aa 78-92 of SEQ ID NO: 2)], the binding result in the assay with HLA DRB5 01:01 is on record as “no binding”. As for SSLLLPFFLLPSFFN (also called Pool 6 FABP7) [FABP7 peptide #32 (Aa 141-155 of SEQ ID NO: 1)], in the assay with HLA DRB5 01:01, the binding result is on record as “no binding”. Regarding QVGNVTKPTVIISQE (also called Pool 2 FABP7) [FABP7 peptide #7 (Aa 32-46 of SEQ ID NO: 1)], in the assay with HLA DRB5 01:01, the binding result was “no binding”.

The values above are taken from US20240158455A1, “MULTIPLE SCLEROSIS ASSOCIATED AUTOANTIGENS, AND USE THEREOF IN THERAPY AND DIAGNOSIS” (NEOGAP Therapeutics AB, priority 2017, published 2024).
